# Tests used:
# [1] = biological target: T1, Ki-67 antigen (MKI67: Marker Of Proliferation Ki-67) (human, UniProt P46013 1-3256); test: flow cytometry, formalin-fixed T47D cells, thrombin treatment done; share of nuclei above the 95 percentile of the isotype control
# T1 construct: Formalin-crosslinked and possibly partly cleaved; also called K-67
# [2] = biological target: T1, Ki-67 antigen (MKI67: Marker Of …); test: flow cytometry, formalin-fixed MDA-MB-231 cells, thrombin treatment not done; share of nuclei above the 95 percentile of the isotype control
# [3] = biological target: T1, Ki-67 antigen (MKI67: Marker Of …); test: flow cytometry, formalin-fixed T47D cells, thrombin treatment not done; share of nuclei above the 95 percentile of the isotype control
# [4] = biological target: T1, Ki-67 antigen (MKI67: Marker Of …); test: flow cytometry, formalin-fixed MDA-MB-231 cells, thrombin treatment done; share of nuclei above the 95 percentile of the isotype control
# [5] = biological target: T1, Ki-67 antigen (MKI67: Marker Of …); test: flow cytometry, formalin-fixed SKBr3 cells, thrombin treatment not done; share of nuclei above the 95 percentile of the isotype control
# [6] = biological target: T1, Ki-67 antigen (MKI67: Marker Of …); test: flow cytometry, formalin-fixed SKBr3 cells, thrombin treatment done; share of nuclei above the 95 percentile of the isotype control
# T1 sequence (P46013 whole entry): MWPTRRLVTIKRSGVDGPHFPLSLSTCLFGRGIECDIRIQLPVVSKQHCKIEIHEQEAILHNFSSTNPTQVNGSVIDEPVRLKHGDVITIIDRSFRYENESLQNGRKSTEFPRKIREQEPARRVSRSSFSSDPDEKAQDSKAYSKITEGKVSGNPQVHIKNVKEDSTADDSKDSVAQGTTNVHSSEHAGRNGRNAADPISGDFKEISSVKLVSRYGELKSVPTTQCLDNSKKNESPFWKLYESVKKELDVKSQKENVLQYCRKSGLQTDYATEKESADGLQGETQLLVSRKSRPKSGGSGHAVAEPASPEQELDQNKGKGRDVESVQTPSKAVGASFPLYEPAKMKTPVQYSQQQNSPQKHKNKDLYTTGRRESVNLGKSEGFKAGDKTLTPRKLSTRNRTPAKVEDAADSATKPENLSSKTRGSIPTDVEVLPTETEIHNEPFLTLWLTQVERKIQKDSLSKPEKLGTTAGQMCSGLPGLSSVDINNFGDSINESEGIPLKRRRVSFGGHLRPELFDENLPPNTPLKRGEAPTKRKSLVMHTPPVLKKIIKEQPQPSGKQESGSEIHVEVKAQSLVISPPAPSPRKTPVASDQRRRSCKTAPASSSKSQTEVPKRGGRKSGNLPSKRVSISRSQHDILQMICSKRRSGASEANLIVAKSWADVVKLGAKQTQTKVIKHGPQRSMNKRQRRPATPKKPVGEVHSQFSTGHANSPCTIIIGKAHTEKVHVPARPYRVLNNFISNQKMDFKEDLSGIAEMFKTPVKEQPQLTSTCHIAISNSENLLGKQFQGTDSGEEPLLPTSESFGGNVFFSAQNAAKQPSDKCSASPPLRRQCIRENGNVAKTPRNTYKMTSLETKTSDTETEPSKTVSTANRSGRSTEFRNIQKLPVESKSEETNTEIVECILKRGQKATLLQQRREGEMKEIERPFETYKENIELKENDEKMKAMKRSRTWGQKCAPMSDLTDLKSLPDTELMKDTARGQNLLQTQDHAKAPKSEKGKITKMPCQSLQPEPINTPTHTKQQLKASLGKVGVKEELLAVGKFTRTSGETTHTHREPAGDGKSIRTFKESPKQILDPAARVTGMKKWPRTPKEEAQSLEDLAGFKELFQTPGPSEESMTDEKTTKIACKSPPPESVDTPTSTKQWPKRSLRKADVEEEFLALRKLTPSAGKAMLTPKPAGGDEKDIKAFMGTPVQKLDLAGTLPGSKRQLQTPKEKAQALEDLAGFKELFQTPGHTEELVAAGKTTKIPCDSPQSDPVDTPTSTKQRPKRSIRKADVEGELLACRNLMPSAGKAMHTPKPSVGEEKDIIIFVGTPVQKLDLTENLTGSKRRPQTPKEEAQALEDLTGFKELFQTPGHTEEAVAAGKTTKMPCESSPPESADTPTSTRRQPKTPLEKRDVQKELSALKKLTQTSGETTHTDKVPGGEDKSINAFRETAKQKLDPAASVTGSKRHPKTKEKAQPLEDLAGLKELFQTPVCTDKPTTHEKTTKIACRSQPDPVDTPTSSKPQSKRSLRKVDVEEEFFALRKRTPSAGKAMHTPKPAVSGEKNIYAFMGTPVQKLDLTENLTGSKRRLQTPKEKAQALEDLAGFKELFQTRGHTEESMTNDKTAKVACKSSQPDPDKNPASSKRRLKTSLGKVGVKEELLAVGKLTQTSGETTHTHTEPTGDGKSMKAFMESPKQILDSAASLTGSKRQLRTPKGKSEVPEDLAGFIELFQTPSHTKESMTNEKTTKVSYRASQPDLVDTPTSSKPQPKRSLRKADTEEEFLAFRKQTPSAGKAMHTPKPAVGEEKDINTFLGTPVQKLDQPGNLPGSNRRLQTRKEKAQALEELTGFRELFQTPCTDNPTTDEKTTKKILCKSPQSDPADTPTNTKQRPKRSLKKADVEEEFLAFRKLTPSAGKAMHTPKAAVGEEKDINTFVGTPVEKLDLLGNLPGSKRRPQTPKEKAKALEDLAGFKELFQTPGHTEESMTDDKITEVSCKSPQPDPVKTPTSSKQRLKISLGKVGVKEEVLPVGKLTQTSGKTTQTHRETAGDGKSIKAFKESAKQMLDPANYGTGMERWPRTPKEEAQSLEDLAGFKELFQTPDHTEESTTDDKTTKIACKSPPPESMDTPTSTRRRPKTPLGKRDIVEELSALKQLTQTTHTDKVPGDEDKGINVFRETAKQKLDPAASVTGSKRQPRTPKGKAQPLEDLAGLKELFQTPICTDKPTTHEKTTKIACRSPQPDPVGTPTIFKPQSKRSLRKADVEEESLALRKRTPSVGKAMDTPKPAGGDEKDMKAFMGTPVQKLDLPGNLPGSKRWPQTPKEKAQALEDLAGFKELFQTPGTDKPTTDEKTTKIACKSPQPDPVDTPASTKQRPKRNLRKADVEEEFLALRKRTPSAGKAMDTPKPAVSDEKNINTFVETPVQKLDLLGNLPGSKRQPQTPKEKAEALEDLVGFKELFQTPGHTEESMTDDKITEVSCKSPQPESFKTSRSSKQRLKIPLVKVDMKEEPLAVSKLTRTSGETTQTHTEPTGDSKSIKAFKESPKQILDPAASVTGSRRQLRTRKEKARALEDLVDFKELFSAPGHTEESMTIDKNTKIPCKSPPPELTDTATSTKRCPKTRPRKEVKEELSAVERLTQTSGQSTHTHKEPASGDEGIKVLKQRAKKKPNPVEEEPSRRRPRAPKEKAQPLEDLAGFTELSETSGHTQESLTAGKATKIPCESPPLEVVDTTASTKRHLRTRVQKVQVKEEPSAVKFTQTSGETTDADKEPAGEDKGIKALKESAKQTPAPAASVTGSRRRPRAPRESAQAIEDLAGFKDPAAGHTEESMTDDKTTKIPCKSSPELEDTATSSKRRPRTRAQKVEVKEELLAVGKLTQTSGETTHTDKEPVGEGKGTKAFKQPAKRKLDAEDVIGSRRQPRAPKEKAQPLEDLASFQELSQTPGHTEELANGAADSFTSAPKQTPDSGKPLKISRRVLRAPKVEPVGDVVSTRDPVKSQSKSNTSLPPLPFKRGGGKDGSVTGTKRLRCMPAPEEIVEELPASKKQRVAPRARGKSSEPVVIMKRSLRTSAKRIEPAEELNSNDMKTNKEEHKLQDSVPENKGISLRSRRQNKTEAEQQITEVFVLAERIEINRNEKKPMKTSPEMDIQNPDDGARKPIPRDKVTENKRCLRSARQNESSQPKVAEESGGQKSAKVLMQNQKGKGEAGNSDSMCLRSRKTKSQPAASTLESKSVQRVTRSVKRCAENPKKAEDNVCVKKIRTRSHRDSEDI
binder,measurement,setting,value
"Ki-67 antibody (Dako, clone: MIB-1, mouse monoclonal antibody) (antibody, V domains shown) VH: EVQLQESGPGILQPSQTLSLTCSFSSYHFGDIVGWIRQPSGKGLEWLAHNWKDINDNKYNTALKSRLTISKDTSNNQVFLKIASVDTADTATYYCASYGHYDHWGQGSTLTVSS VL: DIVMTQSPLSLPVSLGDQASISCRSSSQSVINGQSNYLEWYLQKPGQSPKLLIYLVSNRFSGVPDRFSGSGSGTDFTLKISRVEAEDLGVYYCFQSGVHWPTFGGGTKL",Ki-67-positive ratio,[1],37.3
same,Ki-67-positive ratio,[2],33.1
same,Ki-67-positive ratio,[3],24.3
same,Ki-67-positive ratio,[4],39.9
same,Ki-67-positive ratio,[5],6.52
same,Ki-67-positive ratio,[6],19.8

# Reference: US20200408770A1 (NITTO BOSEKI, published 2020)
